Experimental data taken from article doi:10.1101/577460.

Biological target: microtubules (porcine brain Tubulin) (porcine (brain)) (UniProt P02550)
Experiment: turbidimetry

Chain of LEM2_(188-212) peptide (Q8NC56 188-212): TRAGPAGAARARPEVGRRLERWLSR
Chain of LEM2_(1-208) (Q8NC56 1-208): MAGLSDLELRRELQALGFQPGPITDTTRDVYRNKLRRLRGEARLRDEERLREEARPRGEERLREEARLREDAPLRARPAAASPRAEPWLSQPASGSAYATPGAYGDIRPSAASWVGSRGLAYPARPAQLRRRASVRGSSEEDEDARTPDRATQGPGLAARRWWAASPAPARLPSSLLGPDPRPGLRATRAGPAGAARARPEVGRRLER

half-maximal scattering concentration (MT bundling) [µM]	half maximal concentration (MT bundling) [µM]	Substance
1.3		LEM2_(1-208) (from UniProt Q8NC56 1-208) (domain or fragment)
	85.1	LEM2_(188-212) peptide (from UniProt Q8NC56 188-212)
